# In publication PMC8163212 (Chemical Science, 2020):
# B1: UVR8 mutant W198/250/302F (6Wd + 4Wc), on the W400F background (receptor)
# chain: MAEDMAADEVTAPPRKVLIISAGASHSVALLSGDIVCSWGRGEDGQLGHGDAEDRPSPTQLSALDGHQIVSVTCGADHTVAYSQSGMEVYSWGWGDFGRLGHGNSSDLFTPLPIKALHGIRIKQIACGDSHCLAVTMEGEVQSWGRNQNGQLGLGDTEDSLVPQKIQAFEGIRIKMVAAGAEHTAAVTEDGDLYGWGFGRYGNLGLGDRTDRLVPERVTSTGGEKMSMVACGWRHTISVSYSGALYTYGFSKYGQLGHGDLEDHLIPHKLEALSNSFISQISGGWRHTMALTSDGKLYGWGFNKFGQVGVGNNLDQCSPVQVRFPDDQKVVQVSCGWRHTLAVTERNNVFAWGRGTNGQLGIGESVDRNFPKIIEALSVDGASGQHIESSNIDPSSGKSFVSPAERYAVVPDETGLTDGSSKGNGGDISVPQTDVKRVRI
# Target: the molecule itself
# Assay: SEC
protein,measurement,value
B1,binding result,binds
